# According to patent publication US7087215B2 (priority 1998, dated 2006):
# Legend:
# [1] = Plasma insulin levels by RIA method after injection or mouth spray in diabetic volunteers; assay type: in vivo, human
# Description: (§1) Ten diabetic volunteers were asked to fast overnight and not have any breakfast prior to dosing. On the first day, the volunteers were given 10 units insulin by injection (regular fast acting insulin, obtained from Eli Lilly). On the second day, the volunteers were given 60 units insulin of this example (10 puffs of 6 units each) into the mouth, without inhalation. Plasma insulin levels were measured at intervals by the RIA method for 3 hours. Blood glucose levels were also monitored at intervals using Bayer's glucometer Elite for 3 hours.
# (§2) Tests were also conducted with 40 units of spray at 10 puffs each, and compared to 10 units injected by measuring plasma levels and glucose levels as above. The results are shown in Table 7 (plasma) and 8 (glucose).
# as §1, with “injection.” for “injection (regular fast acting insulin, obtained from Eli Lilly).”
# (§3) On the first day, each patient had 7 units regular fast acting insulin, obtained from Eli Lilly, administered by injection. On the second day, each patient was given 70 units of the insulin formulation of this Example (7 puffs of 10 unit each) into the mouth, without inhalation. Blood samples were collected and plasma glucose levels were measured at intervals using Bayer's glucometer Elite for 3 hours. Insulin levels were also monitored at intervals by the RIA method for 3 hours.
# blood glucose levels = assay: Blood glucose levels by Bayer's glucometer Elite after injection or mouth spray in fasted diabetic volunteers; assay type: in vivo, human
# Description: as §1, §2
# as §1, with “injection.” for “injection (regular fast acting insulin, obtained from Eli Lilly).”
# as §3
# [2] = time 0 min, insulin 10 units by injection, Example 2 60 units by mouth spray, average of ten fasted diabetic volunteers
# [3] = time 0 min, insulin 10 units by injection, Example 3 60 units by mouth spray, average of ten fasted diabetic volunteers
# [4] = time 0 min, insulin 10 units injected, Example 2 40 units of spray, measured as above
# [5] = time 15 min, insulin 10 units by injection, Example 2 60 units by mouth spray, average of ten fasted diabetic volunteers
# [6] = time 15 min, insulin 10 units by injection, Example 3 60 units by mouth spray, average of ten fasted diabetic volunteers
# [7] = time 15 min, insulin 10 units injected, Example 2 40 units of spray, measured as above
# [8] = time 30 min, insulin 10 units by injection, Example 2 60 units by mouth spray, average of ten fasted diabetic volunteers
# [9] = time 30 min, insulin 10 units by injection, Example 3 60 units by mouth spray, average of ten fasted diabetic volunteers
# [10] = time 30 min, insulin 10 units injected, Example 2 40 units of spray, measured as above
# [11] = time 45 min, insulin 10 units by injection, Example 2 60 units by mouth spray, average of ten fasted diabetic volunteers
# [12] = time 45 min, insulin 10 units by injection, Example 3 60 units by mouth spray, average of ten fasted diabetic volunteers
# [13] = time 60 min, insulin 10 units by injection, Example 2 60 units by mouth spray, average of ten fasted diabetic volunteers
# [14] = time 60 min, insulin 10 units by injection, Example 3 60 units by mouth spray, average of ten fasted diabetic volunteers
# [15] = time 60 min, insulin 10 units injected, Example 2 40 units of spray, measured as above
# [16] = time 90 min, insulin 10 units by injection, Example 2 60 units by mouth spray, average of ten fasted diabetic volunteers
# [17] = time 90 min, insulin 10 units by injection, Example 3 60 units by mouth spray, average of ten fasted diabetic volunteers
# [18] = time 90 min, insulin 10 units injected, Example 2 40 units of spray, measured as above
# [19] = time 120 min, insulin 10 units by injection, Example 2 60 units by mouth spray, average of ten fasted diabetic volunteers
# [20] = time 120 min, insulin 10 units by injection, Example 3 60 units by mouth spray, average of ten fasted diabetic volunteers
# [21] = time 120 min, insulin 10 units injected, Example 2 40 units of spray, measured as above
# [22] = time 150 min, insulin 10 units by injection, Example 2 60 units by mouth spray, average of ten fasted diabetic volunteers
# [23] = time 150 min, insulin 10 units by injection, Example 3 60 units by mouth spray, average of ten fasted diabetic volunteers
# [24] = time 150 min, insulin 10 units injected, Example 2 40 units of spray, measured as above
# [25] = time 180 min, insulin 10 units by injection, Example 2 60 units by mouth spray, average of ten fasted diabetic volunteers
# [26] = time 180 min, insulin 10 units by injection, Example 3 60 units by mouth spray, average of ten fasted diabetic volunteers
# [27] = time 180 min, insulin 10 units injected, Example 2 40 units of spray, measured as above
substance,measurement,setting,value
insulin,Plasma insulin level,[1]; [2],10 micromoles per ml
same,Plasma insulin level,[1]; [3],9 micromoles per ml
same,Plasma insulin level,[1]; [4],9 micromoles per ml
same,Plasma insulin level,[1]; [5],9.1 micromoles per ml
same,Plasma insulin level,[1]; [6],9.1 micromoles per ml
same,Plasma insulin level,[1]; [7],9 micromoles per ml
same,Plasma insulin level,[1]; [8],11 micromoles per ml
same,Plasma insulin level,[1]; [9],14 micromoles per ml
same,Plasma insulin level,[1]; [10],13 micromoles per ml
same,Plasma insulin level,[1]; [11],16 micromoles per ml
same,Plasma insulin level,[1]; [12],20 micromoles per ml
same,Plasma insulin level,"[1]; time 45 min, insulin 10 units injected, Example 2 40 units of spray, measured as above",19 micromoles per ml
same,Plasma insulin level,[1]; [13],31 micromoles per ml
same,Plasma insulin level,[1]; [14],40 micromoles per ml
same,Plasma insulin level,[1]; [15],34 micromoles per ml
same,Plasma insulin level,[1]; [16],45 micromoles per ml
same,Plasma insulin level,[1]; [17],48 micromoles per ml
same,Plasma insulin level,[1]; [18],45 micromoles per ml
same,Plasma insulin level,[1]; [19],32 micromoles per ml
same,Plasma insulin level,[1]; [20],39 micromoles per ml
same,Plasma insulin level,[1]; [21],42 micromoles per ml
same,Plasma insulin level,[1]; [22],25 micromoles per ml
same,Plasma insulin level,[1]; [23],34 micromoles per ml
same,Plasma insulin level,[1]; [24],35 micromoles per ml
same,Plasma insulin level,[1]; [25],20 micromoles per ml
same,Plasma insulin level,[1]; [26],27 micromoles per ml
same,Plasma insulin level,[1]; [27],24 micromoles per ml
same,Blood glucose level,blood glucose levels; [2],6.1 millimoles per liter
same,Blood glucose level,blood glucose levels; [3],6.6 millimoles per liter
same,Blood glucose level,blood glucose levels; [4],5.8 millimoles per liter
same,Blood glucose level,blood glucose levels; [5],6.0 millimoles per liter
same,Blood glucose level,blood glucose levels; [6],6.5 millimoles per liter
same,Blood glucose level,blood glucose levels; [7],6.0 millimoles per liter
same,Blood glucose level,blood glucose levels; [8],5.9 millimoles per liter
same,Blood glucose level,blood glucose levels; [9],6.1 millimoles per liter
same,Blood glucose level,blood glucose levels; [10],5.9 millimoles per liter
same,Blood glucose level,blood glucose levels; [11],5.5 millimoles per liter
same,Blood glucose level,blood glucose levels; [12],5.5 millimoles per liter
same,Blood glucose level,blood glucose levels; [13],5.1 millimoles per liter
same,Blood glucose level,blood glucose levels; [14],4.9 millimoles per liter
same,Blood glucose level,blood glucose levels; [15],5.5 millimoles per liter
same,Blood glucose level,blood glucose levels; [16],4.5 millimoles per liter
same,Blood glucose level,blood glucose levels; [17],4.5 millimoles per liter
same,Blood glucose level,blood glucose levels; [18],5.0 millimoles per liter
same,Blood glucose level,blood glucose levels; [19],3.8 millimoles per liter
same,Blood glucose level,blood glucose levels; [20],3.8 millimoles per liter
same,Blood glucose level,blood glucose levels; [21],4.5 millimoles per liter
same,Blood glucose level,blood glucose levels; [22],4.2 millimoles per liter
same,Blood glucose level,blood glucose levels; [23],3.5 millimoles per liter
same,Blood glucose level,blood glucose levels; [24],4.1 millimoles per liter
same,Blood glucose level,blood glucose levels; [25],4.4 millimoles per liter
same,Blood glucose level,blood glucose levels; [26],4.4 millimoles per liter
same,Blood glucose level,blood glucose levels; [27],3.9 millimoles per liter
